In article doi:10.1101/552281 (bioRxiv, 2019):
Positions count from the first letter of the chain named. In names and notes the source's numbering stands. Like-named read-outs stand apart in the source and are kept apart here.

B1: full-length human phenylalanine hydroxylase (enzyme, UniProt P00439 1-452, looked up)
chain: MSTAVLENPGLGRKLSDFGQETSYIEDNCNQNGAISLIFSLKEEVGALAKVLRLFEENDVNLTHIESRPSRLKKDEYEFFTHLDKRSLPALTNIIKILRHDIGATVHELSRDKKKDTVPWFPRTIQELDRFANQILSYGAELDADHPGFKDPVYRARRKQFADIAYNYRHGQPIPRVEYMEEEKKTWGTVFKTLKSLYKTHACYEYNHIFPLLEKYCGFHEDNIPQLEDVSQFLQTCTGFRLRPVAGLLSSRDFLGGLAFRVFHCTQYIRHGSKPMYTPEPDICHELLGHVPLFSDRSFAQFSQEIGLASLGAPDEYIEKLATIYWFTVEFGLCKQGDSIKAYGAGLLSSFGELQYCLSEKPKLLPLELEKTAIQNYTVTEFQPLYYVAESFNDAKEKVRNFAATIPRPFSVRYDPYTQRIEVLDNTQQLKILADSINSEIGILCSALQKIK
B2: hPAH mutant Y377F (enzyme, human, UniProt P00439 1-452, looked up)
chain: B1 chain with Y377F
B3: hPAH mutant Y138F (enzyme, human, UniProt P00439 1-452, looked up)
chain: B1 chain with Y138F
B4: hPAH mutant S23A (enzyme, human, UniProt P00439 1-452, looked up)
chain: B1 chain with S23A
B5: ΔN13-hPAH (human phenylalanine hydroxylase lacking the N-terminal 13 residues) (enzyme, UniProt P00439 14-452, looked up)
chain: KLSDFGQETSYIEDNCNQNGAISLIFSLKEEVGALAKVLRLFEENDVNLTHIESRPSRLKKDEYEFFTHLDKRSLPALTNIIKILRHDIGATVHELSRDKKKDTVPWFPRTIQELDRFANQILSYGAELDADHPGFKDPVYRARRKQFADIAYNYRHGQPIPRVEYMEEEKKTWGTVFKTLKSLYKTHACYEYNHIFPLLEKYCGFHEDNIPQLEDVSQFLQTCTGFRLRPVAGLLSSRDFLGGLAFRVFHCTQYIRHGSKPMYTPEPDICHELLGHVPLFSDRSFAQFSQEIGLASLGAPDEYIEKLATIYWFTVEFGLCKQGDSIKAYGAGLLSSFGELQYCLSEKPKLLPLELEKTAIQNYTVTEFQPLYYVAESFNDAKEKVRNFAATIPRPFSVRYDPYTQRIEVLDNTQQLKILADSINSEIGILCSALQKIK

Assays:
[1] = molecular target: catalytic domain of human phenylalanine hydroxylase (hPAH-CD) (human); test: crystal structure
cryo-EM structure = molecular target: the molecule itself; test: cryo-EM structure
[2] = molecular target: the molecule itself
crystal structure = molecular target: the molecule itself; test: crystal structure

| Molecule | stoichiometry N [2] | further results |
| --- | --- | --- |
| catalytic domain of human phenylalanine hydroxylase (hPAH-CD) (domain or fragment) |  | stoichiometry N [1]: 2 |
| B1 |  | stoichiometry N (cryo-EM structure): 4 |
| B2 | 4 |  |
| B3 | 4 |  |
| B4 | 4 |  |
| B5 |  | stoichiometry N (crystal structure): 4 |
